Paper PMC3950718, “The RNA helicase RHAU (DHX36) suppresses expression of the transcription factor PITX1”

T1: RHAU53-105 (UniProt Q9H2U1 53-105)
T1 sequence: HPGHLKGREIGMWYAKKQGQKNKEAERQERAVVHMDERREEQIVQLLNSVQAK

T2: RHAU (full length) (UniProt Q9H2U1 1-1008)
T2 sequence: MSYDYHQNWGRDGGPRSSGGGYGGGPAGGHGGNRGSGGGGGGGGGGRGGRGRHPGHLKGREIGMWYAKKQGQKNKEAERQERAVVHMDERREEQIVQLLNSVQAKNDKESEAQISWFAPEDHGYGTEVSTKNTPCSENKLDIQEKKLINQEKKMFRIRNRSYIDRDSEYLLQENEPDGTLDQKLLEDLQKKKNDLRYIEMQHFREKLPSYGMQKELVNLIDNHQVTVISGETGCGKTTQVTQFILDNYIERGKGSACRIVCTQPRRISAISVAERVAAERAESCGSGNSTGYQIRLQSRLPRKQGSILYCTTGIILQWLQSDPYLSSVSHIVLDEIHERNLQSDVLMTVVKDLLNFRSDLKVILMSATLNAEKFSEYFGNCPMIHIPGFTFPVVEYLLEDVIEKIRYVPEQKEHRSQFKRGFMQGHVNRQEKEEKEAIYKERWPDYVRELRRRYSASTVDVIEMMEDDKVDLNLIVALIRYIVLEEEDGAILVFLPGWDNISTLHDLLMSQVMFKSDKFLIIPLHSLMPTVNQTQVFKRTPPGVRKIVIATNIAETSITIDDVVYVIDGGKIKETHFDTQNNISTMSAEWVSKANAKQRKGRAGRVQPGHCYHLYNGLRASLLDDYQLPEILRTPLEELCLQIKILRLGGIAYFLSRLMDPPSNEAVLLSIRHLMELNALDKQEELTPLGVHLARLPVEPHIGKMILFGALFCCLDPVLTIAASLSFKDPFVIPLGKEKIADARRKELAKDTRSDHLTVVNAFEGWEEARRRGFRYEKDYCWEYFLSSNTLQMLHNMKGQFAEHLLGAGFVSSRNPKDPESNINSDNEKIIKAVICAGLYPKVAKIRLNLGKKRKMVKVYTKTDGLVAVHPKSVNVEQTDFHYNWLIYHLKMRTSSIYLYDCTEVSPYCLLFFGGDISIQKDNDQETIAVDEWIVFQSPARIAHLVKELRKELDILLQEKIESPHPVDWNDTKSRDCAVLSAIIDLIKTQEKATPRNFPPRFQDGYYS

T3: 6xHis-RHAU53-105 (UniProt Q9H2U1 53-105)
T3 sequence: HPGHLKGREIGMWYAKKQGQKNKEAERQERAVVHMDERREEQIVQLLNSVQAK


Tests used:
RHAU53-105 [1] = target: T1, RHAU53-105; assay: EMSA; 150 nM RNA, 0-750 nM protein; qualitatively lower affinity than full length; RNA in 50 mM Tris pH 7.6, 100 mM KCl; EMSA as in ref 12/36 (150 nM RNA, 0-750 nM protein); pull-down binding buffer 50 mM Tris-acetate pH 7.8, 100 mM KCl, 10 mM NaCl, 3 mM MgCl2, 70 mM glycine, 10% glycerol, room temperature; details: protein: recombinant; label: 5' biotin; G-quadruplex
RHAU (full length) = target: T2, RHAU (full length); assay: EMSA; 150 nM RNA, 0-750 nM protein; RNA in 50 mM Tris pH 7.6, 100 mM KCl; EMSA as in ref 12/36 (150 nM RNA, 0-750 nM protein); pull-down binding buffer 50 mM Tris-acetate pH 7.8, 100 mM KCl, 10 mM NaCl, 3 mM MgCl2, 70 mM glycine, 10% glycerol, room temperature; details: protein: recombinant, label: 5' biotin
6xHis-RHAU53-105 [2] = target: T3, 6xHis-RHAU53-105; assay: EMSA; 150 nM RNA; affinity similar to untagged; RNA in 50 mM Tris pH 7.6, 100 mM KCl; EMSA as in ref 12/36 (150 nM RNA, 0-750 nM protein); pull-down binding buffer 50 mM Tris-acetate pH 7.8, 100 mM KCl, 10 mM NaCl, 3 mM MgCl2, 70 mM glycine, 10% glycerol, room temperature; details: protein: recombinant; tags: 6xHis; label: 5' biotin; G-quadruplex
RHAU53-105 [3] = target: T1, RHAU53-105; assay: EMSA; 150 nM RNA, 0-750 nM protein; RNA in 50 mM Tris pH 7.6, 100 mM KCl; EMSA as in ref 12/36 (150 nM RNA, 0-750 nM protein); pull-down binding buffer 50 mM Tris-acetate pH 7.8, 100 mM KCl, 10 mM NaCl, 3 mM MgCl2, 70 mM glycine, 10% glycerol, room temperature; details: protein: recombinant; label: 5' biotin; no quadruplex (no NMM staining)
6xHis-RHAU53-105 [4] = target: T3, 6xHis-RHAU53-105; assay: EMSA; RNA in 50 mM Tris pH 7.6, 100 mM KCl; EMSA as in ref 12/36 (150 nM RNA, 0-750 nM protein); pull-down binding buffer 50 mM Tris-acetate pH 7.8, 100 mM KCl, 10 mM NaCl, 3 mM MgCl2, 70 mM glycine, 10% glycerol, room temperature; details: protein: recombinant; tags: 6xHis; label: 5' biotin; no quadruplex (no NMM staining)

Row | Binder | binding result (RHAU53-105 [1]) | binding result (RHAU (full length); G-quadruplex) | binding result (6xHis-RHAU53-105 [2]) | binding result (RHAU53-105 [3]) | binding result (RHAU (full length); no quadruplex (no NMM staining)) | binding result (6xHis-RHAU53-105 [4])
1 | GAGCGGGGAAGGGCGCGGGCGCGGGCGCGG (structured_RNA) [PITX1 Q1] | binds | binds | binds |  |  | 
2 | GUUGGGGCGGGCGUUGGGUUUGGGGGGACG (structured_RNA) [PITX1 Q2] | binds | binds |  |  |  | 
3 | AGCGGGCAGUGCGGGCCUGGCGGGAGGUGGGGGAGG (structured_RNA) [PITX1 Q3] | binds | binds |  |  |  | 
4 | GAGCGCGGAAGCGCGCGCGCGCGCGCGCGG (ssRNA) [PITX1 Q1Mut] |  |  |  | no binding | no binding | no binding
